Data reported in the supplement of paper PMC9170038.

Test system: MS2 coat protein
Experiment: apparent KD of MS2 coat protein; designed switch direction (-1 OFF switch, 1 ON switch): -1; higher = weaker reporter binding
Outline: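 The reported apparent KD is a per-design median over clusters, from curve fits of normalised cluster fluorescence. Protein titrations used SNAP-549-labelled MS2 coat protein, doubled from 0.7 or 1.5 nM to 3 µM, in Tris-HCl pH 7.5 buffer with KCl, MgCl2, BSA, DTT, tRNA and Tween-20, with no input, 200 uM small-molecule ligand, or an oligonucleotide input. The RNA switches were transcribed on Illumina chips by stalled E. coli RNA polymerase.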

[1] = Eterna round: R95, input ligand: microRNA oligo, concentration not stated
[2] = input ligand: microRNA oligo, concentration not stated
[3] = Eterna round: R95, input ligand: FMN 200 uM
[4] = Eterna round: R95, input ligand: none

Row | Sequence | apparent KD of MS2 coat protein (input ligand: FMN 200 uM) [nM] | apparent KD of MS2 coat protein (input ligand: none) [nM] | apparent KD of MS2 coat protein [1] [nM] | other results
1 | AAGCAGUCAGGAUAUCGUUAAUUUAGUUGUUUGUAUUAGUUCGAGAAGGGACAUGAGGAUCACCCAUGUAUGAA [Ex4 #42] (Eterna round: R97, puzzle: Exclusion 4) | 51.5 | 48.3 | – | –
2 | AAGGAUAGAGGAUAUACAUAGAUACAGAUUCGUGUAGUCCUACAUGAGGAUCACCCAUGUAGAAGGCUAUCCUA [Fiskers Ex 2 - 13] (puzzle: Exclusion 2) | – | – | 11.3 | –
3 | AAGGGUACUUUCGGAACGACAUGAGGAUCACCCAUGUAUACUGAGGAUAUCUACUACUAAGGACGGGAGAAGGCAGUGUAAUGU [Ex NG3 #77] (Eterna round: R96, puzzle: Exclusion NG 3) | – | – | – | apparent KD of MS2 coat protein [2]: 13.6 nM
4 | AAGUACCGGUGAGGAUAUUUUUAAUAGAACUUUAUGAUAUACAUGAGGAUCACCCAUGUUACUUUAAAGAAGGCAUCGGAUAAA [Mat - Exclusion NG 2 - Mod of JL - D87] (Eterna round: R96, puzzle: Exclusion NG 2) | – | – | – | apparent KD of MS2 coat protein [2]: 12 nM
5 | AAGUACCGUCACGAUAGUGAUGGUACAACAAGCAAAUACACAUGAGGAUCACCCAUGUCCUCUUUUGCUCGUCUUGU [Sensor 3 - 0] (puzzle: Sensor v3, turn-off variant 2) | – | – | 236 | apparent KD of MS2 coat protein [3]: 674 nM; apparent KD of MS2 coat protein [4]: 767 nM
6 | AAGUACCGUCACGAUAGUGAUGGUACAACAAGCAAGUGUACAUGAGGAUCACCCAUGUCCUCUUUUGCUCGUCUUAU [Sensor 3 - 95] (puzzle: Sensor v3, turn-off variant 2) | – | – | 16.9 | apparent KD of MS2 coat protein [3]: 19.7 nM; apparent KD of MS2 coat protein [4]: 18.6 nM
7 | AAGUACCGUCACGAUAGUGAUGGUACAACAAGCAGUGACACAUGAGGAUCACCCAUGUCCUCAAUUGCUCGUCUUAU [Sensor 3 - 76] (puzzle: Sensor v3, turn-off variant 2) | – | – | 383 | apparent KD of MS2 coat protein [3]: 179 nM; apparent KD of MS2 coat protein [4]: 156 nM
8 | AAGUACCGUCACGAUAGUGAUGGUACAGCAAGCAAAUGUACAUGAGGAUCACCCAUGUCCUCUUUUGCUCGUCUUAU [Sensor 3 - 98] (puzzle: Sensor v3, turn-off variant 2) | – | – | 31.1 | apparent KD of MS2 coat protein [3]: 49.1 nM; apparent KD of MS2 coat protein [4]: 53.2 nM
9 | AAGUAGACGGUGAGGAUAUAGGUGGAAUGACCCAUUUAGAAGGUACAUGAGGAUCACCCAUGUGGGUAACGUCG [Brourd's EX4 #28] (Eterna round: R97, puzzle: Brourd's mod of Exclusion 4) | 156 | 166 | – | –
10 | AAGUAGGCAGGAUAUACAUGAGGAUCACCCAUGUGCCCAUGAAAGGUACUUUCGAAAGGUAGAAGGGCCUACAA [ChP 13.04.2015 #5] (puzzle: Exclusion 3) | – | – | 14.6 | –
11 | AAGUGACAUGAGGAUCACCCAUGUCAGGAUAUGCGCCGCUUACGCCUAAGUGUAGGGAGCAGAAGGGACAUAGA [EX1 B.2] (Eterna round: R97, puzzle: Exclusion 1) | 30.5 | 25.7 | – | –
12 | AAGUUACAUGAGGAUCACCCAUGUGAGGAUAUGAGUCAGUCACGGUGACGUGGCUGACUCAGAAGGCACAAAGG [JL-ex1-4.37 salish99 mod] (Eterna round: R97, puzzle: Exclusion 1) | 256 | 98.1 | – | –
13 | AAUAACAAGCAGAUCCUAAACAUGAGGAUCACCCAUGUGUUCGUCUUGUAAAGUACUAUCACGAAAGUGAUAGUACA (Eterna round: R97, puzzle: Sensor, turn-off variant 1) | 68.7 | 66.2 | – | –
14 | AAUAACAAGCCGAUCCUUCACAUGAGGAUCACCCAUGUGUUCGUCUUGUAAAGUACUAUCACGAAAGUGAUAGUACA (Eterna round: R97, puzzle: Sensor, turn-off variant 1) | 18 | 19.1 | – | –
15 | AAUAACAGAGGAUAUACUAUUUUAUGUGUUUAUUGUUUUAAACAUGAGGAUCACCCAUGUAGAAGGCUGAAUAA [JMF 16] (puzzle: Exclusion 2) | – | – | 26.8 | –
16 | AAUAACAGAGGAUAUACUAUUUUAUGUGUUUGUUAUUUUAAACAUGAGGAUCACCCAUGUAGAAGGCUGAUUAA [JMF 44] (Eterna round: R96, puzzle: Exclusion 2) | 47.7 | 42.7 | – | apparent KD of MS2 coat protein [2]: 34.3 nM
17 | AAUAACAGAGGAUAUACUAUUUUAUGUGUUUGUUAUUUUAAACAUGAGGAUCACCCAUGUAGAAGGCUGAUUAA [JMF 44] (puzzle: Exclusion 2) | – | – | 38.5 | –

Row | Sequence | apparent KD of MS2 coat protein (input ligand: FMN 200 uM) [nM] | apparent KD of MS2 coat protein (input ligand: none) [nM] | apparent KD of MS2 coat protein [1] [nM] | other results
18 | AAUAACAGAGGAUAUACUAUUUUAUGUGUUUGUUAUUUUGAACAUGAGGAUCACCCAUGUAGAAGGCUGAUUGA [JMF 77] (puzzle: Exclusion 2) | – | – | 41.1 | –
19 | AAUAACAGAGGAUAUACUAUUUUAUGUGUUUGUUGUUUUAAACAUGAGGAUCACCCAUGUAGAAGGCUGAAUAA [JMF 18] (puzzle: Exclusion 2) | – | – | 20 | –
20 | AAUAACAGAGGAUAUACUGUUUUAUGUGUUUAUUGUUUUAAACAUGAGGAUCACCCAUGUAGAAGGCUGAAUAA [JMF 17] (puzzle: Exclusion 2) | – | – | 23.4 | –
21 | AAUAACAGAGGAUAUACUGUUUUAUGUGUUUAUUGUUUUGAACAUGAGGAUCACCCAUGUAGAAGGCUGAAUAA [JMF 25] (puzzle: Exclusion 2) | – | – | 20.1 | –
22 | AAUAAGAGAGGAUAUACUAAAAUAUGAAUAAAAUAAAUAAAACAUGAGGAUCACCCAUGUAGAAGGCUCAAUAA [JMF's Not so obvious solution 6] (puzzle: Exclusion 2) | – | – | 19.2 | apparent KD of MS2 coat protein [3]: 23.1 nM; apparent KD of MS2 coat protein [4]: 24.7 nM
23 | AAUAAUAAGGAGGAUAUCGUAUCGGAAACGAUACGAGAAGGCUUAACAUGAGGAUCACCCAUGUUCCUCAAUAA [Fiskers Ex 6 - 22] (puzzle: Exclusion 6) | – | – | 33.5 | –
24 | AAUAAUCAUGUAGGAUAUGCGUGGCAAAGCUAUGCAGAAGGACAUGAGGAUCACCCAUGUUCUAGCGUCUGCGUACAGAUGCUA [Mat - Exclusion NG 1 - Mod of JL - D80] (Eterna round: R96, puzzle: Exclusion NG 1) | 246 | 37.2 | – | apparent KD of MS2 coat protein [2]: 29.1 nM
25 | AAUAGCAAGUAAGAUCCUAACAUGAGGAUCACCCAUGUGCUCGUCUUAUAAAGUACUAUCACGAAAGUGAUAGUACA [Sensor 3, v1 - 47] (puzzle: Sensor v3, turn-off variant 1) | – | – | 51.4 | apparent KD of MS2 coat protein [3]: 64.8 nM; apparent KD of MS2 coat protein [4]: 74.3 nM
26 | AAUAUACAUGUAGGAUAUCUGCACGUUUAGUGCAGAGAAGGACAUGAGGAUCACCCAUGUAAUUAAGAUCAAUUAUUAAAUAUU [ENG1/3-B2] (Eterna round: R96, puzzle: Exclusion NG 1) | 437 | 63 | – | apparent KD of MS2 coat protein [2]: 39.6 nM
27 | AAUCCACAUGAGGAUCACCCAUGUGAGGAUAUGAUACUAUGUACUUCGGUACAUAGUAUCAGAAGGCACAAAGG [Ex1-3: 52] (puzzle: Exclusion 1) | – | – | 56 | –
28 | AAUCGAUCGCCGUACGCACACAUGAGGAUCACCCAUGUAGCUGAGGAUAUCCACCCAUAACGGUCGGAGAAGGCGGGACUGGGA [Eraananbi] (Eterna round: R96, puzzle: Exclusion NG 3) | 30.8 | 19.1 | – | apparent KD of MS2 coat protein [2]: 11.3 nM
29 | AAUGAUUGACGAGGAUAUUGUGGUGAAACACGACGAGAAGGCGUAUGUCACAUGAGGAUCACCCAUGUGAGCUUUGUGGAUAUA [Ex NG1 #68] (Eterna round: R96, puzzle: Exclusion NG 1) | 34.7 | 34.1 | – | apparent KD of MS2 coat protein [2]: 24.1 nM
30 | AAUGUCUGAGGAUAUCGAAUAGUGUACAUGAGGAUCACCCAUGUUUUUAUUAGUAUAUUACGAGAAGGCAGUGGAA [JR_E5_Sub086] (puzzle: Exclusion 5) | – | – | 16.1 | –
31 | AAUUAAUAUCAGGAUAUGACUUUCGAUAUUUAGUCAGAAGGGAUGACAUGAGGAUCACCCAUGUGAUCAAUUAA [JR_Ex6_Sub027] (Eterna round: R97, puzzle: Exclusion 6) | 101 | 37.7 | – | –
32 | AAUUAGCAAGCAAGAUCCCACAUGAGGAUCACCCAUGUGCUCGUCUUAUAAGGUACUGUGACGAAAGUCACGGUACC [Mat - Sensor, turn-off var - Eli Mod - D50] (Eterna round: R97, puzzle: Sensor, turn-off variant 1) | 50.2 | 54.8 | – | –
33 | AAUUAGCAAGCGAGAUCCCACAUGAGGAUCACCCAUGUGCUCGUCUUAUAAGGUACUGUGACGAUAGUCACGGUACC [Mat - Sensor, turn-off var - Eli Mod - D20] (Eterna round: R97, puzzle: Sensor, turn-off variant 1) | 15.6 | 13.5 | – | –
